Experimental data taken from US8268550B2, “Compositions and methods for identification of PARP function, inhibitors, and activators” (Massachusetts Institute of Technology, priority 2009, dated 2012).

Test system: 293T cells
Experiment: Modified pGL4.72[hRlucCP] vector luciferase assay of RNAi/miRNA activity
Type: cell-based
Conditions: overexpression from pEGFP-C1; 10 nM vector-target RNAi; 48 hours post-transfection; FIG. 30
Experimental: To identify additional substrate proteins of PAPR13, immunoprecipitation experiments were performed on lysate from HeLa cells transfected with a pEGFP-C1 plasmid containing a sequence encoding a PARP13-GFP fusion protein following treatment with either 0 or 250 μM sodium arsenite for 30 minutes. The cell lysate was treated with an anti-GFP antibody and the resulting immunoprecipitated proteins were electrophoresed using SDS-PAGE. […] In a second set of experiments, the ability of the vector-target RNAi to reduce the expression of luciferase was measured in 293T cells transfected with pGL4.72[hRlucCP]™ vector, 20 nM vector-target RNAi, and 20 nM of negative RNAi control for PARP13 siRNA (siNeg; AllStars Negative Control siRNA; Qiagen Catalog No. 1027280) or PARP13 siRNA (siPARP13; SEQ ID NO: 40) following treatment with 0 or 30 nM pateamine A for 2 hours. […]
Experiments to determine the effect of knockdown of PARP13 on miRNA and RNAi activity were performed using a modified pGL4.72[hRlucCP]™-vector assay (Promega). […] Following 48-hours incubation, the level of luciferase protein production was measured using a luciferase assay kit (Promega). […]

B1: PARP13: PARP13 overexpressed from a pEGFP-C1 expression vector; isoform not specified (protein)
chain: ADPEVCCFITKILCAHGGRMALDALLQEIALSEPQLCEVLQVAGPDRFVVLETGGEAGITRSVVATTRARVCRRKYCQRPCDNLHLCKLNLLGRCNYSQSERNLCKYSHEVLSEENFKVLKNHELSGLNKEELAVLLLQSDPFFMPEICKSYKGEGRQQICNQQPPCSRLHICDHFTRGNCRFPNCLRSHNLMDRKVLAIMREHGLNPDVVQNIQDICNSKHMQKNPPGPRAPSSHRRNMAYRARSKSRDRFFQGSQEFLASASASAERSCTPSPDQISHRASLEDAPVDDLTRKFTYLGSQDRARPPSGSSKATDLGGTSQAGTSQRFLENGSQEDLLHGNPGSTYLASNSTSAPNWKSLTSWTNDQGARRKTVFSPTLPAARSSLGSLQTPEAVTTRKGTGLLSSDYRIINGKSGTQDIQPGPLFNNNADGVATDITSTRSLNYKSTSSGHREISSPRIQDAGPASRDVQATGRIADDADPRVALVNDSLSDVTSTTSSRVDDHDSEEICLDHLCKGCPLNGSCSKVHFHLPYRWQMLIGKTWTDFEHMETIEKGYCNPGIHLCSVGSYTINFRVMSCDSFPIRRLSTPSSVTKPANSVFTTKWIWYWKNESGTWIQYGEEKDKRKNSNVDSSYLESLYQSCPRGVVPFQAGSRNYELSFQGMIQTNIASKTQKDVIRRPTFVPQWYVQQMKRGPDHQPAKTSSVSLTATFRPQEDFCFLSSKKYKLSEIHHLHPEYVRVSEHFKASMKNFKIEKIKKIENSELLDKFTWKKSQMKEEGKLLFYATSRAYVESICSNNFDSFLHETHENKYGKGIYFAKDAIYSHKNCPYDAKNVVMFVAQVLVGKFTEGNITYTSPPPQFDSCVDTRSNPSVFVIFQKDQVYPQYVIEYTEDKACVIS
  decrease in the level of miRNA-mediated repression compared to control cells (EGFP- and G3BP-overexpressing cells): 3 fold
